The text below walks through data of patent publication US20240309104A1 (PROMETHEUS BIOSCIENCES, published 2024).

Assay in all cases: cell-based or functional assay
For assay [1], the target named is T1, recombinant human TL1A protein (human, UniProt O95150 72-251).
T1 sequence (looked up): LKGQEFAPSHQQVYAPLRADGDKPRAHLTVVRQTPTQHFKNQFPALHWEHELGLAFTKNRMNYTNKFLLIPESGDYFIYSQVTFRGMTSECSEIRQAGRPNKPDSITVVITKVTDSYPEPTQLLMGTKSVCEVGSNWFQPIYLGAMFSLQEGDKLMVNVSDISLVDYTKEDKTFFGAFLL

Assay [2] deals with T2, recombinant cynomolgus monkey TL1A protein (cynomolgus monkey, UniProt G7PRK8 72-251).
T2 sequence: T1 sequence (looked up) with F39L, I78V

The target in assay [3] is T3, TL1A produced by PBMCs in cynomolgus monkey whole blood (cynomolgus monkey, UniProt G7PRK8 72-251).
T3 sequence: T1 sequence (looked up) with F39L, I78V

Substitutions are numbered along the chain they refer to. Values joined by “and” are separate entries in the source; they are usually repeats but may differ in a detail not shown here. Equal values may be shown once.

B1: anti-TL1A antibody A219 (antibody, V domains shown)
VH: QVQLVQSGAEVKKPGASVKVSCKASGFDIQDTYMHWVKQRPGQGLEWMGRIDPASGHTKYDPKFQVRVTITRDTSTSTVYLELSSLRSEDTAVYYCARSGGLPDVWGQGTTVTVSS
VL: EIVLTQSPGTLSLSPGERATLSCRASSSVSYMYWYQQKPGQAPRPLIYATSNLASGIPDRFSGSGSGTDFTLTISRLEPEDFAVYYCQQWEGNPRTFGGGTKLEIK
For B1, the “inhibition of TL1A-induced caspase activation in TF-1 cells (IC50)” value worked out at 0.27 nM in assay [1] and 0.59 nM in assay [2]. Moreover, the “inhibition of the IFN-γ response in monkey whole blood (mean IC50)” value in assay [3] was 1.54 nM and 289 ng/mL.
